{
  "source": "paper doi:10.1101/2024.10.18.618978v3",
  "key": {"[1]": {"substrate": "NCCCNCCCCNCCCN", "assay": "colorimetric DTNB SSAT assay", "assay_type": "biochemical, Staphylococcus aureus", "conditions": "1 mM AcCoA, pH 7.5, 37 °C, approximate value given in Methods"}, "purified protein": {"substrate": "NCCCNCCCCNCCCN", "assay": "purified protein", "conditions": "1 mM AcCoA, pH 7.5, 37 °C"}},
  "data": [
    {"protein": "PaiASa (Staphylococcus aureus subsp. aureus USA300) (protein) MAGIIKEISEQNASELVELATRTFYDTFGSYYDDKDFDQFFKDNYTVEKFTQEINHVDSFHYFYQEDGANVGYIKMNINSAQTEEMGETYLEVQRIYFLKDFQGGGRGSQLIELAEKIAQEHNKHKIWLGVWEHNPRAQAFYKRHGFKVVGEHHFQTGDVTDTDLIMEKEL", "values": [
      {"measurement": "Km", "setting": "[1]", "result": 2000, "unit": "µM"}
    ]},
    {"protein": "SpeG (Staphylococcus aureus subsp. aureus USA300) (protein) MKLRALEYSDLLFVHELNNEYSIMSYWFEEPYESLTELQHLFDKHLLDESERRFIVEDENQVVGIVELVEINYIHRNCEIQIIIKPEFSGKGYAKFAFEKAIIYAFNILNMHKIYLYVDADNKKAIHIYESQGFKTEGLLKEQFYTKGKYKDAYFMSLLKSEYIL", "values": [
      {"measurement": "Km", "setting": "purified protein; Michaelis-Menten fit", "result": "1312 ± 348.1", "unit": "µM"},
      {"measurement": "K0.5", "setting": "purified protein; allosteric sigmoidal fit", "result": "757.5 ± 63.35", "unit": "µM"}
    ]}
  ]
}
